Reference: US20050042747A1, “Hivgp120-induced bob/gpr15 activation” (priority 2001, published 2005)

Key:
Type in all cases: cell-based
Parameters in all cases: key: — = no calcium flux seen at any dilution tested
CCR2b = molecular target: T1, CCR2b (Homo sapiens, UniProt P41597); assay: gp120-induced calcium flux, Ghost (3) cells transfected with CCR2b; conditions: Ghost (3) CCR2b cells
T1 construct: host or cells: Ghost (3) cells (human osteosarcoma, CD4+)
T1 sequence (P41597 1-360 isoform P41597-2): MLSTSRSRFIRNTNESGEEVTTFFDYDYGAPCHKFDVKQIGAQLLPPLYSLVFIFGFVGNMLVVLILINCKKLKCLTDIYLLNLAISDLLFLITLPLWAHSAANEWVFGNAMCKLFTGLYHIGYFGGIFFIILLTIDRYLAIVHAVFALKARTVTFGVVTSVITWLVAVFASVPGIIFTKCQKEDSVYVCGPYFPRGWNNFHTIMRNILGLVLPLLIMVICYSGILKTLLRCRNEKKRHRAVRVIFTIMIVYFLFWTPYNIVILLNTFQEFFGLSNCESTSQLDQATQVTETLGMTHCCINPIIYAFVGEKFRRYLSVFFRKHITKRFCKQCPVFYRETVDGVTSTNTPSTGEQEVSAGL
Excerpt: (§1) Human osteosarcoma cell lines were transfected to express CD4, one or another of the HIV coreceptors, and a Green Fluorescent Protein reporter for active HIV infection, for the purpose of testing which of the known coreceptors was used to induce HIV infection by a given HIV strain (Morner A. J Virol 73:2343-9, 1999 and Deng K Nature 388:296-300, 1997). These cells were obtained from the AIDS Research and Reference Reagent Program, courtesy of Dr. Vineet KewalRamani and Dr. Dan Littman. These cells were grown in DMEM with 10% bovine calf serum supplemented with 0.5 mg/ml G418, 0.1 mg/ml hygromycin, and 1 microgram/ml puromycin, and were used at low passage number (less than 10). We have discovered that these cell lines are also activated by gp120 of certain viral strains, inducing a calcium flux in these cells.
(§2) Within 4 days of plating, coreceptor-transfected Ghost (3) cells (as well as the parent cell line not transfected to express any HIV coreceptors as a control) were put in Locke's medium, then treated with Fluo-4 (5 micrograms/ml for 30 minutes at 37° C.). […] The results are given in the following table, expressed as the minimal concentration of gp120 resulting in a significant calcium flux. […]

CX3CR1 = molecular target: T2, CX3CR1 (Homo sapiens, UniProt P49238); assay: gp120-induced calcium flux, Ghost (3) cells transfected with CX3CR1; conditions: Ghost (3) CX3CR1 cells
T2 construct: host or cells: Ghost (3) cells (human osteosarcoma, CD4+)
T2 sequence (P49238 1-355): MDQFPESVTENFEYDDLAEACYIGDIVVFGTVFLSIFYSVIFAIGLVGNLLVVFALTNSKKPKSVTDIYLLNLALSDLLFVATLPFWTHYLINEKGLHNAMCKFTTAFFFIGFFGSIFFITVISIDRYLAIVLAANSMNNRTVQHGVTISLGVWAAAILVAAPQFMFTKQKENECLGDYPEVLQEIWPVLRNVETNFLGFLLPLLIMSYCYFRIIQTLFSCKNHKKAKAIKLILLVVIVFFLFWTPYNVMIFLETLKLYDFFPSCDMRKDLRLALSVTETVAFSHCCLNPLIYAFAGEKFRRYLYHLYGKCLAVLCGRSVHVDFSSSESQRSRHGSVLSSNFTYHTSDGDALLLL
Excerpt: as §1, §2

CCR4 = molecular target: T3, CCR4 (Homo sapiens, UniProt P51679); assay: gp120-induced calcium flux, Ghost (3) cells transfected with CCR4; conditions: Ghost (3) CCR4 cells
T3 construct: host or cells: Ghost (3) cells (human osteosarcoma, CD4+)
T3 sequence (P51679 1-360): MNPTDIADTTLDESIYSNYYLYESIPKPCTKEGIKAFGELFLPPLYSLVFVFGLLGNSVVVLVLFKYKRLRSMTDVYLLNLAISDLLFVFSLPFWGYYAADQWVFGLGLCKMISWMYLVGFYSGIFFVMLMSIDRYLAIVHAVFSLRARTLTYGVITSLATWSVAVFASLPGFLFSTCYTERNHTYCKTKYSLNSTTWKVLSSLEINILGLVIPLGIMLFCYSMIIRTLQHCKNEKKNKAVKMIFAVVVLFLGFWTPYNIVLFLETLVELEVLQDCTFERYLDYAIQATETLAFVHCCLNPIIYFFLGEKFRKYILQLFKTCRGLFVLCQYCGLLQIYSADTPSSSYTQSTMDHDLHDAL
Excerpt: as §1, §2

CXCR4 = molecular target: T4, CXCR4 (Homo sapiens, UniProt P61073); assay: gp120-induced calcium flux, Ghost (3) cells transfected with CXCR4; conditions: Ghost (3) CXCR4 cells
T4 construct: host or cells: Ghost (3) cells (human osteosarcoma, CD4+)
Protocol: Calcium studies were done on HT-29 cells and Ghost (3) cells loaded with Fluo 4. The cells were placed in Locke's buffer containing 5 μg/ml Fluo 4 AM ester (Molecular Probes) for 20 to 30 minutes, then in Locke's buffer for an additional 30 minutes before testing. Various concentrations of gp120IIIB (X4 trophic), gp120CM235 (R5 trophic), gp120mN (X4 trophic), gp12093TH975 (nonsyncytium-inducing primary isolate from an asymptomatic subject, trophism undetermined but likely R5), and gp120SF2 (X4R5 trophic), ranging from 10 nM to less than 1 pM, were added in Locke's buffer.^6 The gp120 proteins were obtained from the AIDS Research Reagent Referral Program. Some HT-29 cells were given one of the following pretreatments: 50 μg/ml anti-Bob37 overnight, 1 μg/ml pertussis toxin overnight, or 4.6 μg/ml U73122 for one hour. With the HT-29 cells only, similar tests were also performed with SDF-1, MIP-1α, MIP-1β, and RANTES rather than gp120. The cells were visualized every 4 seconds in a confocal microscope, using 488 nm argon laser excitation and detection filters appropriate for fluorescein-like dyes.
as §1
Within 4 days of plating, coreceptor-transfected Ghost (3) cells (as well as the parent cell line not transfected to express any HIV coreceptors as a control) were put in Locke's medium, then treated with Fluo-4 (5 micrograms/ml for 30 minutes at 37° C.). After an additional 30 minute incubation in Locke's buffer at room temperature, the cells were examined in a confocal microscope while gp120 of various viral strains was added, and the cells were examined at 4 second intervals to look for a gp120-induced calcium flux. The results are given in the following table, expressed as the minimal concentration of gp120 resulting in a significant calcium flux. “−” means that no reproducible calcium flux was observed. “ND” means that the gp120 of that viral strain was not tested with the stated coreceptor. […]

CXCR6/Bonzo = molecular target: T5, CXCR6/Bonzo (Homo sapiens, UniProt O00574); assay: gp120-induced calcium flux, Ghost (3) cells transfected with CXCR6/Bonzo; conditions: Ghost (3) CXCR6/Bonzo cells
T5 construct: host or cells: Ghost (3) cells (human osteosarcoma, CD4+)
Excerpt: as §1, §2

Row | Substance | minimal concentration of gp120 resulting in a significant calcium flux (CCR2b) | minimal concentration of gp120 resulting in a significant calcium flux (CX3CR1) | minimal concentration of gp120 resulting in a significant calcium flux (CCR4) | minimal concentration of gp120 resulting in a significant calcium flux (CXCR4) | minimal concentration of gp120 resulting in a significant calcium flux (CXCR4; listed as IIIB) | minimal concentration of gp120 resulting in a significant calcium flux (CXCR6/Bonzo)
1 | gp120IIIB: HIV-1 envelope surface protein gp120 of strain IIIB (X4 trophic), from the AIDS Research Reagent Referral Program | 250 nM | — | — | at least 150 pM | 150 pM | —
2 | gp120SF2: gp120 of HIV strain SF2 (X4R5 trophic) | — | — | — | — |  | —
